Earlier results as cited in US12037378B2, “Variant CD58 domains and uses thereof” (NOVARTIS AG, priority 2019, dated 2024).

Target: T1, CD2 (Homo sapiens, UniProt P06729)
T1 sequence (P06729 25-351): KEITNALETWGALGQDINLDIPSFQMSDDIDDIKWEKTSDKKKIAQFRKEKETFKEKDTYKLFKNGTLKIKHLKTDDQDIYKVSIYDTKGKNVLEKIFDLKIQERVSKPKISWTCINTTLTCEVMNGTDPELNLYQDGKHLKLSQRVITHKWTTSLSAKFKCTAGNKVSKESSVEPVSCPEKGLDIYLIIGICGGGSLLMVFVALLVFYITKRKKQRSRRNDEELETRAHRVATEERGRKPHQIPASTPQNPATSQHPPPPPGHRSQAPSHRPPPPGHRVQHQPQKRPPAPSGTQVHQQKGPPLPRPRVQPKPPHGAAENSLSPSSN
Details: Wang et al., 1999, Cell 97:791-803; cited from earlier work

B1: CD58-6: Amino acids 30-123 (WT) Ig-V like domain of CD58, SEQ ID NO:6 (protein, listed as Homo sapiens)
chain: SQQIYGVVYGNVTFHVPSNVPLKEVLWKKQKDKVAELENSEFRAFSSFKNRVYLDTVSGSLTIYNLTSSDEDEYEMESPNITDTMKFFLYVLES
binding to CD2: sufficient for binding to CD2
